The record followed here is US6900050 (ROCKEFELLER UNIVERSITY, dated 2005).

One assay addresses T1, GST alone (control) (UniProt P08515 1-218 = GST).
T1 construct: Control for the glutathione-Sepharose coprecipitations; also called GST proteins
The assay is described as follows: glutathione-Sepharose coprecipitation from 293 cells, Western blot (control). Here is the method:
Cell lysates were precipitated with glutathione-Sepharose beads, and analyzed by Western blot analysis with anti-TRAF1 or anti-TRAF2 antibodies. The 293 cells were transfected with various combinations of expression vectors and thirty-six hours after transfection, cells were harvested in phosphate-buffered saline/1 mM phenylmethylsulfonyl fluoride, pelleted, and lysed in lysis buffer (20 mM Hepes (pH 7.9), 100 mM KCl, 300 mM NaCl, 10 mM EDTA, 0.1% NP-40, plus protease inhibitors). After lysis, aliquots of cell lysates were incubated with glutathione-Sepharose (Pharmacia) for 2 hr at 4° C. […]
However, since the interaction of TRAFs with the cognate members of the TNFR superfamily is mediated through the TRAF-C domain rather than the entire TRAF domain, it was-important to determine whether TRIP can indirectly interact with the receptors through TRAFs. […] Cell lysates were precipitated with glutathione-Sepharose beads, and analyzed on Western blots with anti-HA, anti-TRAF1, and anti-TRAF2 antibodies. […]
Aliquots of cell lysates were subjected for purification with glutathione-Sepharose beads as described in Experimental Procedures. Proteins coprecipitated with GST-fusion proteins were analyzed by Western analysis with an anti-HA mAb (12CA5), and anti-TRAF1- or anti-TRAF2-polyclonal antibodies.

In assay [1] the target is T2, LexA DNA binding domain-TRAF2 fusion protein (UniProt P0A7C2 1-202; P39429 1-501).
T2 construct: also called LexA-TRAF2
T2 sequence (looked up): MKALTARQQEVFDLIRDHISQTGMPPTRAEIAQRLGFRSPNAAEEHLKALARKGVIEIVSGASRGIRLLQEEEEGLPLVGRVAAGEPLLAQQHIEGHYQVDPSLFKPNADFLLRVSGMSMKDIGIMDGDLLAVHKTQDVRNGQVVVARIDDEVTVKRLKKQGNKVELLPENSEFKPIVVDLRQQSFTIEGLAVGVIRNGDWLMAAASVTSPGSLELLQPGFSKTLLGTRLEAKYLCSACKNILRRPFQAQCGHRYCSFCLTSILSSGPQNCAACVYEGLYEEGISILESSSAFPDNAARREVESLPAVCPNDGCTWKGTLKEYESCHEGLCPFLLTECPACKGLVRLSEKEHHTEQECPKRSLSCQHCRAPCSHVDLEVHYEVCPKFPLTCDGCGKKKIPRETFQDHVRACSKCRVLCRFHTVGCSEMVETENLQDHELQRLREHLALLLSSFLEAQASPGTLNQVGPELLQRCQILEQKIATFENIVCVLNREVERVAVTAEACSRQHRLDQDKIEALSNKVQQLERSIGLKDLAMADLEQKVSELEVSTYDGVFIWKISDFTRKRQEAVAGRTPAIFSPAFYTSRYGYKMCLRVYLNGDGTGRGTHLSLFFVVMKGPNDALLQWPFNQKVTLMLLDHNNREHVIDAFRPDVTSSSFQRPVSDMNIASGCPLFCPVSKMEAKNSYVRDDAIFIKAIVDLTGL
The assay is described as follows: yeast two-hybrid, b-gal activity. From the text: (§1) The yeast two-hybrid assay was used to determine the structural requirements for the interaction of TRIP with TRAF1 or TRAF2. […] Expression vectors encoding wild type TRIP or the indicated deletion mutants of TRIP fused to the transcription activation domain were cotransformed into yeast with plasmids expressing LexA DNA binding domain-TRAF1 or -TRAF2 fusion proteins. Inter-actions between fusion proteins were scored by measuring b-gal activity of yeast transformants. The "+" indicates average b-gal activity of three independent yeast transformants was higher than 1000 Miller units; and the "−" indicates average b-gal activity of three independent yeast transformants was about 100 Miller units, which was similar to that of negative controls (bait plasmid alone).

Assay [2] has as its target T3, LexA DNA binding domain-TRAF1 fusion protein (bait plasmid pEG202-TRAF1) (UniProt P0A7C2 1-202; P39428 1-409).
T3 construct: also called LexA-TRAF1
T3 sequence (looked up): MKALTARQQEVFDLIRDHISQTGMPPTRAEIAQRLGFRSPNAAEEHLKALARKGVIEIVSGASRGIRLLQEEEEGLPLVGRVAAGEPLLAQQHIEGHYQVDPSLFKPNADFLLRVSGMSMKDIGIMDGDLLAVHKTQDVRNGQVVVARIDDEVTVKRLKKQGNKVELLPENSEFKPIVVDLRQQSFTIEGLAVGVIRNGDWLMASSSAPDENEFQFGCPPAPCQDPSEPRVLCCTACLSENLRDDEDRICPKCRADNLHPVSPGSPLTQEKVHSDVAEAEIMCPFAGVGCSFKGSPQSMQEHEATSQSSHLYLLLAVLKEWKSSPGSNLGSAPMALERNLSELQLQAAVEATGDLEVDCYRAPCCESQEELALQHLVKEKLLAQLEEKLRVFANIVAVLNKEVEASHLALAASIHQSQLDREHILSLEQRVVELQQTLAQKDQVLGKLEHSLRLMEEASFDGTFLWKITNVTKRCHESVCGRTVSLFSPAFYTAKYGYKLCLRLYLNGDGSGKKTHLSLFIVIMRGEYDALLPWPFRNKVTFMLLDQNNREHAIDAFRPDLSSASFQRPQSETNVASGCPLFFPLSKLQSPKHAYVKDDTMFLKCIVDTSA
The assay is described as follows: yeast two-hybrid, b-gal activity.
Excerpt: as §1

T1 sequence (P08515 whole entry): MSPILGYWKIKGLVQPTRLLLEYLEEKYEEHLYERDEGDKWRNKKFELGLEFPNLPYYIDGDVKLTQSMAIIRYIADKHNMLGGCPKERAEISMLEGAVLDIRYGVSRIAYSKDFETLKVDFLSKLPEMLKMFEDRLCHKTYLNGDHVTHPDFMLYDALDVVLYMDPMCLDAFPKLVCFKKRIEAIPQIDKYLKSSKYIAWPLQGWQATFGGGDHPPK

B1: HA epitope tagged-TRIP expressed in 293 cells (other, not shown: small tags and cut ends)
chain: MPILSLCTICSDFFDHSRDVAAIHCGHTFHLQCLIQWFETAPSRTCPQCRIQVGKKTIINKLFFDLAQEEENVLDAEFLKNELDSVKAQLSQKDREKRDSQAIIDTLRDTLEERNATVESLQNALNKAEMLCSTLKKQMKFLEQRQDETKQAREEAHRLKCKMKTMEQIELLLQSQRSEVEEMIRDMGVGQSAVEQLAVYCVSLKKEYENLKEARKATGELADRLKKDLVSSRSKLKTLNTELDQAKLELRSAQKDLQSADQEITSLRKKSDDPPGNLEPASATNETVSRLVFESPAPVEMMNPRLHQPPFGDEIDLNTTFDVNTPPTQTSGSQHCLPKKLCLERARSPMQNVLKKVHKVSKPESQLSLGGQRCVGELDEELAGAFPLFIRNAVLGQKQPNRTTAESRSSTDVVRIGFDGLGGRTKFIQPRDTTIIRPVPVKSKAKSKQKVRIKTVSSASQPKLDTFLCQ
notes: also called HA-TRIP
On to B1, for which, in the assay with GST alone (control), the binding result is on record as “no binding”.

B2: mutant TRIP lacking the N-terminal RING finger and the coiled-coil domain (residues 275-470) fused to the transcription activation domain (other, not shown: large carriers)
chain: PGNLEPASATNETVSRLVFESPAPVEMMNPRLHQPPFGDEIDLNTTFDVNTPPTQTSGSQHCLPKKLCLERARSPMQNVLKKVHKVSKPESQLSLGGQRCVGELDEELAGAFPLFIRNAVLGQKQPNRTTAESRSSTDVVRIGFDGLGGRTKFIQPRDTTIIRPVPVKSKAKSKQKVRIKTVSSASQPKLDTFLCQ
For B2, the binding result in assay [1] and in assay [2] was “no binding” in each case.
